Source: publication PMC5801815 (Virology Journal, 2018)

Columns and labels:
[1] = molecular target: SUMO*-DENV-4 NS1 fusion protein (not stated | dengue virus 4 (DENV-4), strain H421) (UniProt Q58HT7); assay: SDS-PAGE
[2] = molecular target: T1, SUMO*-DENV-4 NS1 fusion protein (Dengue virus 4 strain H241 (printed …, UniProt Q58HT7)); assay: ELISA; conditions: one partner purified
T1 construct: also called SUMO*-DENV-4 rNS1 fusion protein; SUMO*-NS1 fusion protein

[3] = molecular target: T2, recombinant DENV-4 non-structural protein 1 (unfused commercial DENV-4 rNS1) (Dengue virus 4, strain  …, UniProt P09866); assay: western blot; conditions: one partner purified
[4] = molecular target: T2, recombinant DENV-4 non-structural …; assay: ELISA; conditions: one partner purified

T1 sequence (Q58HT7 whole entry, the tested form may be a part): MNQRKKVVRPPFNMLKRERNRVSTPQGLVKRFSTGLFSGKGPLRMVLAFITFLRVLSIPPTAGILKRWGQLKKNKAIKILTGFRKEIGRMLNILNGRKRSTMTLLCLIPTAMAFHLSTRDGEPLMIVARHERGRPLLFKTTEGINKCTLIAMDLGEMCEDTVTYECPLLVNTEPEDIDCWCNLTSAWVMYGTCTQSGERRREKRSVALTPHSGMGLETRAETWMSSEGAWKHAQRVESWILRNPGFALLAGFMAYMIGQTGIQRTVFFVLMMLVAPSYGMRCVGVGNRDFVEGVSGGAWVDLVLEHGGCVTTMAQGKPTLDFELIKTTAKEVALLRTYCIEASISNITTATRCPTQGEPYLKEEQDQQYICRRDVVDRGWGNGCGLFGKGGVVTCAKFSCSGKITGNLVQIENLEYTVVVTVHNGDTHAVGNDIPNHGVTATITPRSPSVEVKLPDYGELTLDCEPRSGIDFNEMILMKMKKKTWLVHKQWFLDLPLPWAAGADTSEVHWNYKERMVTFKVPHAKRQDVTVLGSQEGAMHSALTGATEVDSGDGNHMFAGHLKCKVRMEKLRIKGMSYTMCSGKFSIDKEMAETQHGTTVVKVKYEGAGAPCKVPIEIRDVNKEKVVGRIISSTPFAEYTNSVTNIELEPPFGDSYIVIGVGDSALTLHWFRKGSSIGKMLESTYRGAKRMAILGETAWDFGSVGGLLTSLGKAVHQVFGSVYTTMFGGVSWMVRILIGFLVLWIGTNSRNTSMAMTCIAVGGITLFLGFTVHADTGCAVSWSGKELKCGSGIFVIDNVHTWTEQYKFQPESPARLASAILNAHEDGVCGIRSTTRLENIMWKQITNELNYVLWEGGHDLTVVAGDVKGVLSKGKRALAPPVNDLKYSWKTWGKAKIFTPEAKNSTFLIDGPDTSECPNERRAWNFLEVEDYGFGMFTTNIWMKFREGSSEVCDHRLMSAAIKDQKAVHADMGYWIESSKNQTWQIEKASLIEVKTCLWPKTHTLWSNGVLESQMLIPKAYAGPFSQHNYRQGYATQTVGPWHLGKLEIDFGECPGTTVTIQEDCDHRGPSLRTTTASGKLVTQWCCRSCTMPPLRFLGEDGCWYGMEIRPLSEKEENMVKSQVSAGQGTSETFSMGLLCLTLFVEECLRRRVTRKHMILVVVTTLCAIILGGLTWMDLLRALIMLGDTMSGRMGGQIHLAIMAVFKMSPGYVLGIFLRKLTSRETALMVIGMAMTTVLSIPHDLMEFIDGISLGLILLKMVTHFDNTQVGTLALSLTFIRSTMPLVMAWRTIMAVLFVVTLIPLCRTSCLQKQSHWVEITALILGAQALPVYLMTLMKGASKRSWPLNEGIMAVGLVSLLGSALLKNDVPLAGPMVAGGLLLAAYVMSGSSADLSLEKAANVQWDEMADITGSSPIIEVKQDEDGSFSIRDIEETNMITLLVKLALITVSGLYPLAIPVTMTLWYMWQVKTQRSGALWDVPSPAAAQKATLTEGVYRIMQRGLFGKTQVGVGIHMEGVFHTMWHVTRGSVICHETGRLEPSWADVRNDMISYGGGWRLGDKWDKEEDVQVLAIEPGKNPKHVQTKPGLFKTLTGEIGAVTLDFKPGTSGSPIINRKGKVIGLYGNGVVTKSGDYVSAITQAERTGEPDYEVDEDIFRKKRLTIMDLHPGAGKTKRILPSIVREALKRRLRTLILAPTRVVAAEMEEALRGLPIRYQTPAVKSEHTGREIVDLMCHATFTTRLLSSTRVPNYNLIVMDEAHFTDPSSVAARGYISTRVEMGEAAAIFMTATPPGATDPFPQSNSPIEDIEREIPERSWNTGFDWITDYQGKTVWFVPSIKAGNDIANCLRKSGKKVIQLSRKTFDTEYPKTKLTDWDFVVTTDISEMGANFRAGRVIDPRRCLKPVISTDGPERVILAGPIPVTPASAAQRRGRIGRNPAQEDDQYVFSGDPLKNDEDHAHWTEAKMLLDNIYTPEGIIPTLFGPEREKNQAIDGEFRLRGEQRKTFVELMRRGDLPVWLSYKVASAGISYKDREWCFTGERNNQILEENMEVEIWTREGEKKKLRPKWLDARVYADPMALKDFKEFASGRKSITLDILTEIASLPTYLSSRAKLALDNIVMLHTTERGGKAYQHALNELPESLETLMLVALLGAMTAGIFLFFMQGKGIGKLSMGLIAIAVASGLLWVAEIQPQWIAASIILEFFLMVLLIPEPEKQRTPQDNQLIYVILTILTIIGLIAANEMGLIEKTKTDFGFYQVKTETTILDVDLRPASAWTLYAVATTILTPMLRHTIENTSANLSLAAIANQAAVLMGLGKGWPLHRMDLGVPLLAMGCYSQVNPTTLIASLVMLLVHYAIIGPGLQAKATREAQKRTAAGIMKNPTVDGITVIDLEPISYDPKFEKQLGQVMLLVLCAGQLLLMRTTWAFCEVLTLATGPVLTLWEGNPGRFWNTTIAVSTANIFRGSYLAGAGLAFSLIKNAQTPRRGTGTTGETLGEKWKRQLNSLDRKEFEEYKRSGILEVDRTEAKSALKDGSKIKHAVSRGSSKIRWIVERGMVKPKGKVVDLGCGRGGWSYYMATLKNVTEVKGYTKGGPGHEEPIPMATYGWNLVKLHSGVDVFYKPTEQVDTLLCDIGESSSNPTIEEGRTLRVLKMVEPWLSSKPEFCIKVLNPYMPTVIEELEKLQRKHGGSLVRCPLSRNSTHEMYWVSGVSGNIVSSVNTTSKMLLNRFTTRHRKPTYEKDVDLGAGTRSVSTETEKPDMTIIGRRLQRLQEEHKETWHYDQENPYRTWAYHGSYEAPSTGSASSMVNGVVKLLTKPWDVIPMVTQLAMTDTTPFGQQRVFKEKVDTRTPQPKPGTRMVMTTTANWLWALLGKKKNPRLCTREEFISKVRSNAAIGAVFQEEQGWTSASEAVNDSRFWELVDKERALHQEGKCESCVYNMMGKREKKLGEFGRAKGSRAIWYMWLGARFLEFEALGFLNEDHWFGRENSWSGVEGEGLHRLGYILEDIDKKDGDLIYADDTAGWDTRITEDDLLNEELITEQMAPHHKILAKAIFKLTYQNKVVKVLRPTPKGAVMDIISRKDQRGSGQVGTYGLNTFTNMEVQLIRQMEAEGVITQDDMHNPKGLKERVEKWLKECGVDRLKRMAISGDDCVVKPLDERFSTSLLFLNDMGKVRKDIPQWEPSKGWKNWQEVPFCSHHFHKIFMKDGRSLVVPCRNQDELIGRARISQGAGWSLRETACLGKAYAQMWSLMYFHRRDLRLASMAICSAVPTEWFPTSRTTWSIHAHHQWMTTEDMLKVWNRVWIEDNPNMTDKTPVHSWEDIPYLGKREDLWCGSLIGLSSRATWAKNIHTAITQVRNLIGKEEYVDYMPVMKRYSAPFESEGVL

SUMO*-DENV-4 NS1 fusion protein (from UniProt Q58HT7 775-1126)
stoichiometry N [1]: 2

B1: MAb 3H7A9 (antibody, V domains shown)
VH: EVQLQQSGAELVKPGASVKLSCTASGFNIKDTYMHWVKQRPEQGLEWIGRIDPANGNTQYGPKFQGKATITADTSSNTAYLQLSSLTSEDTAVYYCARGGIFYYYGSSYSYAMDYWGQGTSVTVSS
VL: DIQMTQTTSSLSASLGDRVTISCRASQDISNYLNWYQQKPDGTVTLLIYYTSRLHSGVPSRFSGSGSGTDYSLTISNLEQEDIATYFCQQGNTLPRTFGGGTKLEIK
binding result [2]: binds
binding result [3]: binds

B2: MAb 8A6F2 (antibody, V domains shown)
VH: DVQLQESGPDLVKPSQSLSLTCTVTGYSITSGYNWHWIRQFPGNKLEWMGYIHYSGGTNYNPSLKSRISITRDTSKNQFFLQLNSVTTEDTATYYCARRTGTVPFAYWGQGTLVTVSA
VL: EIVLTQSPALMAASPGEKVTITCSVSSSISSSNLHWYQQKSETSPKPWIYGTSNLASGVPVRFSGSGSGTSYSLTISSMEAEDAATYYCQQWSSYPLTFGGGTKLEIK
notes: also called biotinylated 8A6F2; 86FA2
binding result [2]: binds

B3: MAb 6D4B10 (antibody, V domains shown)
VH: EVQLQQSGPELVKPGASVKMSCKASGYTFTSYVMHWVKQKPGQGLEWIGYLNPYNDDTKYNEKFKGKATLTSDKSSSTAYMELSSLTSEDSAVYYCAYGPPYALDYWGQGTSVTVSS
VL: QIVLTQSPAIMTASLGERVTMTCTASSSVSSSYLHWYQQKPGSSPKLWIYSTSNLASGVPARFSGSGSGTSYSLTISSMEAEDAATYYCHQYHRSPYTFGGGTKLEIK
notes: also called biotinylated 6D4B10
binding result [4]: binds
binding result [2]: binds
